Consider five sequences from patent US20200354728.

For data set [1], the system named is MmsR (LysR-type transcriptional regulator) (Pseudomonas denitrificans). The data set can be described thus: cell_activity. The conditions noted are these: GFP reporter; 25 mM 3-HP; 2.6 to 90.2 x10^3 AU/OD.
For data set [2] the test system is unchanged. Briefly: EMSA. The conditions noted are these: per monomeric MmsR. (In general: A gel shift assay detects complexes by their altered migration in electrophoresis.)
In data set [3] the test system is HpdR (LysR-type transcriptional regulator, 304 aa) (Pseudomonas denitrificans). Briefly: cell_activity. Conditions: hpdH mRNA by 3-HP in wild type; 1.20 in hpdR deletion; 60.5 on complementation.

“CCTCGAATGTGCAAAAACGCAGACCATACTTGCACATCACCGCATTGAGTACATCAAAAATGCACTGTTAGGATCGATCCAGACAACAAAAAAGCCACAGGCTGGGAGAATCCCG (double strand) [BS_wt (PmmsA reporter)]” returned an activity (fold induction) in data set [1] of 34.6. For the sequence “GTCAGCCTCAGCGCACCTCGAATGTGCAAAAACGCAGACCACTTGCACATCACCGCATTGAGTACATCAAAAATCACTGTTAGGATCGATCCAGACAACAAAAAAGCCACAGGCTGGGAGAATCCCG (double strand) [F12 (PmmsA, intact O1 and O2)]”, the Kd (commonly the equilibrium constant for the complex coming apart) is 0.0107 µM in data set [2] (no 3-HP, 0.4 nM DNA) and 0.0054 µM in data set [2] (with 3-HP (25 mM), 0.4 nM DNA). Take “GTCAGCCTCAGCGCACCTCGAATGTGCAAAAACGCAGACCATACTTGCACATCACCGCATTGAGTACATCAATCCTTGCTTGTTAGGATCGCGCCCAGGCACAAAAAAGCCACAGGCTGGGAGAATCCCG (double strand) [F12M (O2 mutated)]”: the equilibrium dissociation constant (Kd) in data set [2] (no 3-HP) turned out to be 0.0186 µM; in data set [2] (with 3-HP (25 mM)) it was 0.0198 µM. On to “GTCAGCCTCAGCGCACCTCGATCCTTGCTAAACGCAGACCATACCGCCCAGGCACCGCATTGAGTACATCAAAAATGCACTGTTAGGATCGATCCAGACAACAAAAAAGCCACAGGCTGGGAGAATCCCG (double strand) [F1M2 (O1 mutated)]”, for which the Kd is 0.0798 µM in data set [2] (no 3-HP) and 0.316 µM in data set [2] (with 3-HP (25 mM)). As for “TGTGGGAGCGGGCGTGCCCGCGAAGAGGCCAGCACAGACTTACCACTGTGCTAAAACGCACAGCGGCTGCGCGAAATCTCGTGTTTCCTCCACGAAATTACTCACTAAGATGGATCGGGACAAGAATAATAATCAGGCCCGAGGTTGCAC (double strand) [PhpdH (PC3) promoter]”, the activity (fold induction) in data set [3] was 43.
